Experimental data published in paper doi:10.1101/2022.02.24.481830 (bioRxiv, 2022).

Experiments:
[1] = target: H3 COBRA TJ5 HA protein (Influenza A virus H3, synthetic …)
[2] = target: H3 COBRA J4 HA protein (Influenza A virus H3, synthetic …)
[3] = target: H3 COBRA NG2 HA protein (Influenza A virus H3, synthetic …)

Measured: binding result

B1: TJ5-16 (antibody, V domains shown)
VH: EVQLVQSGAEVKKPGASVKVSCKASGYTFTGYYIYWVRQAPGQGLEWMGWINPNGGGTNYAQKFQGRVTMTRDTSITTAYMELSRLRSDDSAVYYCAARAGPGTQDAQTIDFWGQGTLVTVSS
VL: SYELTQPPSVSVSPGQTARITCSGDALPKQYGYWYQQKPGQAPVLVIYKDSERPSGIPERFSGSSSGTTVTLTISGVQAEDEADYYCQSADSSGSYWVFGGGTKLT
binds: all assays above
